The supplement of paper PMC5998384

What was measured:
[1] = tested on: HeLa Kyoto; test: solubility change mitosis vs G1/S (difference of NP-40 vs SDS log2 ratios) (log2 ratio difference); higher = more soluble in mitosis
[2] = tested on: HeLa Kyoto; test: solubility in G1/S (NP-40 vs SDS abundance) (log2 ratio); higher = more soluble; settings: cell cycle stage: G1/S
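Wherever solubility change mitosis vs G1/S (difference of NP-40 vs SDS log2 ratios) is given: synchronized HeLa Kyoto cells (double thymidine block for G1/S, nocodazole release for mitosis), protein amounts in NP-40 versus SDS lysates quantified by mass spectrometry, three biological replicates.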
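Wherever solubility in G1/S (NP-40 vs SDS abundance) is given: HeLa Kyoto cells arrested at G1/S by double thymidine block, proteins quantified by TMT10plex mass spectrometry in mild NP-40 versus SDS extracts, three biological replicates.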

MBD4, sequence (chain, as listed by the source): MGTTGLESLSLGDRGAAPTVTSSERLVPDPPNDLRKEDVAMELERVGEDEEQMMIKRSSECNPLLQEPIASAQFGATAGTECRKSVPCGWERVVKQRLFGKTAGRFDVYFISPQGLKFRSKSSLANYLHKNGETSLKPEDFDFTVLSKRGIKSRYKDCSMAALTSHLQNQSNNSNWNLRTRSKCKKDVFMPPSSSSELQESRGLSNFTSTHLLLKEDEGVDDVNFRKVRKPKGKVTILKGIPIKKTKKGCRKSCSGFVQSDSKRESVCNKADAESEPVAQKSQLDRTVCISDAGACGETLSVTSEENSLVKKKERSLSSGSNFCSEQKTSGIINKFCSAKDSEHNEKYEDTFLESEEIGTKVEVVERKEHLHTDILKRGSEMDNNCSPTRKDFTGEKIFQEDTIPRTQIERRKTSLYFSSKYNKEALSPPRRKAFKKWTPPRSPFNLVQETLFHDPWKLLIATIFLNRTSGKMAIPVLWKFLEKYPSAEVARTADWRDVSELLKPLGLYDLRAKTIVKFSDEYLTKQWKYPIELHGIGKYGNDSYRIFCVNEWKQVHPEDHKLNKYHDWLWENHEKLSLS

Row | Substance | solubility change mitosis (log2) [1] | solubility in G1/S (log2) [2]
1 | MSSRLGAVPATSGPTTFKQQRSTRIVGAKNSRTQCSIKDNSFQYTIPHDDSLSGSSSASSCEPVSDFPASFRKSTYWMKMRRIKPAATSHVEGSGGVSAKGKRKPRQEEDEDYREFPQKKHKLYGRKQRPKTQPNPKSQARRIRKEPPVYAAGSLEEQWYLEIVDKGSVSCPTCQAVGRKTIEGLKKHMENCKQEMFTCHHCGKQLRSLAGMKYHVMANHNSLPILKAGDEIDEPSERERLRTVLKRLGKLRCMRESCSSSFTSIMGYLYHVRKCGKGAAELEKMTLKCHHCGKPYRSKAGLAYHLRSEHGPISFFPESGQPECLKEMNLESKSGGRVQRRSAKIAVYHLQELASAELAKEWPKRKVLQDLVPDDRKLKYTRPGLPTFSQEVLHKWKTDIKKYHRIQCPNQGCEAVYSSVSGLKAHLGSCTLGNFVAGKYKCLLCQKEFVSESGVKYHINSVHAEDWFVVNPTTTKSFEKLMKIKQRQQEEEKRRQQHRSRRSLRRRQQPGIELPETELSLRVGKDQRRNNEELVVSASCKEPEQEPVPAQFQKVKPPKTNHKRGRK [ZNF512] | 1.4 | -2.03
2 | MSYCRQEGKDRIIFVTKEDHETPSSAELVADDPNDPYEEHGLILPNGNINWNCPCLGGMASGPCGEQFKSAFSCFHYSTEEIKGSDCVDQFRAMQECMQKYPDLYPQEDEDEEEEREKKPAEQAEETAPIEATATKEEEGSS [CHCHD4] | -0.667 | -0.518
3 | MLRRPAPALAPAARLLLAGLLCGGGVWAARVNKHKPWLEPTYHGIVTENDNTVLLDPPLIALDKDAPLRFAESFEVTVTKEGEICGFKIHGQNVPFDAVVVDKSTGEGVIRSKEKLDCELQKDYSFTIQAYDCGKGPDGTNVKKSHKATVHIQVNDVNEYAPVFKEKSYKATVIEGKQYDSILRVEAVDADCSPQFSQICSYEIITPDVPFTVDKDGYIKNTEKLNYGKEHQYKLTVTAYDCGKKRATEDVLVKISIKPTCTPGWQGWNNRIEYEPGTGALAVFPNIHLETCDEPVASVQATVELETSHIGKGCDRDTYSEKSLHRLCGAAAGTAELLPSPSGSLNWTMGLPTDNGHDSDQVFEFNGTQAVRIPDGVVSVSPKEPFTISVWMRHGPFGRKKETILCSSDKTDMNRHHYSLYVHGCRLIFLFRQDPSEEKKYRPAEFHWKLNQVCDEEWHHYVLNVEFPSVTLYVDGTSHEPFSVTEDYPLHPSKIETQLVVGACWQEFSGVENDNETEPVTVASAGGDLHMTQFFRGNLAGLTLRSGKLADKKVIDCLYTCKEGLDLQVLEDSGRGVQIQAHPSQLVLTLEGEDLGELDKAMQHISYLNSRQFPTPGIRRLKITSTIKCFNEATCISVPPVDGYVMVLQPEEPKISLSGVHHFARAASEFESSEGVFLFPELRIISTITREVEPEGDGAEDPTVQESLVSEEIVHDLDTCEVTVEGEELNHEQESLEVDMARLQQKGIEVSSSELGMTFTGVDTMASYEEVLHLLRYRNWHARSLLDRKFKLICSELNGRYISNEFKVEVNVIHTANPMEHANHMAAQPQFVHPEHRSFVDLSGHNLANPHPFAVVPSTATVVIVVCVSFLVFMIILGVFRIRAAHRRTMRDQDTGKENEMDWDDSALTITVNPMETYEDQHSSEEEEEEEEEEESEDGEEEDDITSAESESSEEEEGEQGDPQNATRQQQLEWDDSTLSY [CLSTN1] | -0.189 | -0.0306
4 | MEKLSALQEQKGELRKRLSYTTHKLEKLETEFDSTRHYLEIELRRAQEELEKVTEKLRRIQSNYMALQRINQELEDKLYRMGQHYEEEKRALSHEIVALNSHLLEAKVTIDKLSEDNELYRKDCNLAAQLLQCSQTYGRVHKVSELPSDFQERVSLHMEKHGCSLPSPLCHPAYADSVPTCVIAKVLEKPDPASLSSRLSDASARDLAFCDGVEKPGPRPPYKGDIYCSDTALYCPEERRRDRRPSVDAPVTDVGFLRAQNSTDSAAEEEEEAEAAAFPAGFQHEAFPSYAGSLPTSSSYSSFSATSEEKEHAQASTLTASQQAIYLNSRDELFDRKPPATTYEGSPRFAKATAAVAAPLEAEVAPGFGRTMSPYPAETFRFPASPGPQQALMPPNLWSLRAKPGTARLPGEDMRGQWRPLSVEDIGAYSYPVSAAGRASPCSFSERYYGGAGGSPGKKADGRASPLYASYKADSFSEGDDLSQGHLAEPCFLRAGGDLSLSPGRSADPLPGYAPSEGGDGDRLGVQLCGTASSPEPEQGSRDSLEPSSMEASPEMHPAARLSPQQAFPRTGGSGLSRKDSLTKAQLYGTLLN [BEGAIN] | 0.103 | 0.208
5 | MAANSSGQGFQNKNRVAILAELDKEKRKLLMQNQSSTNHPGASIALSRPSLNKDFRDHAEQQHIAAQQKAALQHAHAHSSGYFITQDSAFGNLILPVLPRLDPE [INIP] | 0.407 | -0.135
6 | MBD4 | 0.427 | -0.669
7 | MAQRYDDLPHYGGMDGVGIPSTMYGDPHAARSMQPVHHLNHGPPLHSHQYPHTAHTNAMAPSMGSSVNDALKRDKDAIYGHPLFPLLALIFEKCELATCTPREPGVAGGDVCSSESFNEDIAVFAKQIRAEKPLFSSNPELDNLMIQAIQVLRFHLLELEKVHELCDNFCHRYISCLKGKMPIDLVIDDREGGSKSDSEDITRSANLTDQPSWNRDHDDTASTRSGGTPGPSSGGHTSHSGDNSSEQGDGLDNSVASPSTGDDDDPDKDKKRHKKRGIFPKVATNIMRAWLFQHLTHPYPSEEQKKQLAQDTGLTILQVNNWFINARRRIVQPMIDQSNRAVSQGTPYNPDGQPMGGFVMDGQQHMGIRAPGPMSGMGMNMGMEGQWHYM [MEIS1] | -0.208 | 0.363
8 | MALFVRLLALALALALGPAATLAGPAKSPYQLVLQHSRLRGRQHGPNVCAVQKVIGTNRKYFTNCKQWYQRKICGKSTVISYECCPGYEKVPGEKGCPAALPLSNLYETLGVVGSTTTQLYTDRTEKLRPEMEGPGSFTIFAPSNEAWASLPAEVLDSLVSNVNIELLNALRYHMVGRRVLTDELKHGMTLTSMYQNSNIQIHHYPNGIVTVNCARLLKADHHATNGVVHLIDKVISTITNNIQQIIEIEDTFETLRAAVAASGLNTMLEGNGQYTLLAPTNEAFEKIPSETLNRILGDPEALRDLLNNHILKSAMCAEAIVAGLSVETLEGTTLEVGCSGDMLTINGKAIISNKDILATNGVIHYIDELLIPDSAKTLFELAAESDVSTAIDLFRQAGLGNHLSGSERLTLLAPLNSVFKDGTPPIDAHTRNLLRNHIIKDQLASKYLYHGQTLETLGGKKLRVFVYRNSLCIENSCIAAHDKRGRYGTLFTMDRVLTPPMGTVMDVLKGDNRFSMLVAAIQSAGLTETLNREGVYTVFAPTNEAFRALPPRERSRLLGDAKELANILKYHIGDEILVSGGIGALVRLKSLQGDKLEVSLKNNVVSVNKEPVAEPDIMATNGVVHVITNVLQPPANRPQERGDELADSALEIFKQASAFSRASQRSVRLAPVYQKLLERMKH [TGFBI] | -0.149 | -0.072
9 | MGPLRESKKEHRVQHHDKEISRSRIPRLILRPHMPQQQHKVSPASESPFSEEESREFNPSSSGRSARTVSSNSFCSDDTGCPSSQSVSPVKTPSDAGNSPIGFCPGSDEGFTRKKCTIGMVGEGSIQSSRYKKESKSGLVKPGSEADFSSSSSTGSISAPEVHMSTAGSKRSSSSRNRGPHGRSNGASSHKPGSSPSSPREKDLLSMLCRNQLSPVNIHPSYAPSSPSSSNSGSYKGSDCSPIMRRSGRYMSCGENHGVRPPNPEQYLTPLQQKEVTVRHLKTKLKESERRLHERESEIVELKSQLARMREDWIEEECHRVEAQLALKEARKEIKQLKQVIETMRSSLADKDKGIQKYFVDINIQNKKLESLLQSMEMAHSGSLRDELCLDFPCDSPEKSLTLNPPLDTMADGLSLEEQVTGEGADRELLVGDSIANSTDLFDEIVTATTTESGDLELVHSTPGANVLELLPIVMGQEEGSVVVERAVQTDVVPYSPAISELIQSVLQKLQDPCPSSLASPDESEPDSMESFPESLSALVVDLTPRNPNSAILLSPVETPYANVDAEVHANRLMRELDFAACVEERLDGVIPLARGGVVRQYWSSSFLVDLLAVAAPVVPTVLWAFSTQRGGTDPVYNIGALLRGCCVVALHSLRRTAFRIKT [SYBU] | 0.0944 | -0.253
10 | MRTEAEAAGPPLEPGDFVQLPVPVIQQLYHWDCGLACSRMVLRYLGQLDDSEFERALQKLQLTRSIWTIDLAYLMHHFGVRHRFCTQTLGVDKGYKNQSFYRKHFDTEETRVNQLFAQAKACKVLVEKCTVSVKDIQAHLAQGHVAIVLVNSGVLHCDLCSSPVKYCCFTPSGHHCFCRTPDYQGHFIVLRGYNRATGCIFYNNPAYADPGMCSTSISNFEEARTSYGTDEDILFVYLDS [GUCD1] | -0.00182 | -0.455
11 | ELL2 | 0.0626 | 0.0976
12 | MELLCCEGTRHAPRAGPDPRLLGDQRVLQSLLRLEERYVPRASYFQCVQREIKPHMRKMLAYWMLEVCEEQRCEEEVFPLAMNYLDRYLSCVPTRKAQLQLLGAVCMLLASKLRETTPLTIEKLCIYTDHAVSPRQLRDWEVLVLGKLKWDLAAVIAHDFLAFILHRLSLPRDRQALVKKHAQTFLALCATDYTFAMYPPSMIATGSIGAAVQGLGACSMSGDELTELLAGITGTEVDCLRACQEQIEAALRESLREASQTSSSPAPKAPRGSSSQGPSQTSTPTDVTAIHL [CCND3] | -0.386 | 0.226
